# Results reported in PMC4635001, “Structural Characterisation of FabG from Yersinia pestis, a Key Component of Bacterial Fatty Acid Synthesis” (PLoS ONE, 2015).
# B1: Yersinia pestis FabG (ketoacyl-acyl carrier protein reductase) (enzyme)
# chain: MSFEGKIALVTGASRGIGRAIAELLVERGACVIGTATSEKGAEAISAYLGENGKGLMLNVVDPTSIDTVLATIRAEFGEVDILVNNAGITRDNLLMRMKDDEWQDIIDTNLTSVFRLSKAVMRAMMKKRFGRIITIGSVVGTMGNAGQVNYAAAKAGVIGFSKSLAREVASRGITVNVVAPGFIETDMTRTLTDDQRAGILAQVPANRLGDAKEIASAVAFLASDEASYISGETLHVNGGMYMI
# notes: also called YpFabG; YpFabG TMAO
# Target: the molecule itself
# Test: crystal structure
protein,measurement,value
B1,stoichiometry N,4
